Test results as given in the supplement of paper PMC10724198.
± gives the standard deviation of the averaged measurements.

Test system: Saccharomyces cerevisiae
Assay: protein stability index of tFT-peptide fusion (C-terminal peptide) (PSI (0-1 scale)); higher = more stable (slower turnover)
Conditions: genetic background: wild type; temperature: 30 C
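Note: PSI is a weighted mean of sequencing reads over stability bins, variants kept only with over 10 reads, mCherry proximal and sfGFP distal, peptide attached via GGGS linker.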

PTLSPSPLAPLS
protein stability index: 0.6635 ± 0.0018

PTNQHNLEQRPE
protein stability index: 0.667 ± 0.05

PTPLSPRNTILR
protein stability index: 0.726 ± 0.1

PTPPLPLPRPLP
protein stability index: 0.688 ± 0.037

PTPPNSPRPPTP
protein stability index: 0.63 ± 0.12

PTPPPLLTRPLP
protein stability index: 0.709 ± 0.11

PTSLPAPPRLPF
protein stability index: 0.713 ± 0.023

PTSPPPPLPPPS
protein stability index: 0.7066 ± 0.0036

PTVLCTGKCLRS
protein stability index: 0.635 ± 0.044

PVAGSAGVRNLP
protein stability index: 0.671 ± 0.012

PVAGTLDVHYRV
protein stability index: 0.7098 ± 0.0063

PVAPKPTGAKTP
protein stability index: 0.661 ± 0.06

PVCDPCSKATLL
protein stability index: 0.687 ± 0.015

PVDAAPCSPSGL
protein stability index: 0.663 ± 0.041

PVDPPEDLNTRS
protein stability index: 0.7098 ± 0.0064

PVFSHTDSRYRP
protein stability index: 0.681 ± 0.09

PVGFPLPCPFFT
protein stability index: 0.688 ± 0.035

PVKTHPPPPPLP
protein stability index: 0.724 ± 0.024

PVLELTLILRRS
protein stability index: 0.6304 ± 0.0023

PVLLLLSLPRPL
protein stability index: 0.667 ± 0.014

PVLLVWDLPAVL
protein stability index: 0.714 ± 0.086

PVPADGPSPPQP
protein stability index: 0.721 ± 0.035

PVPDDVTVLLSR
protein stability index: 0.804 ± 0.12

PVPLEAPSPPPP
protein stability index: 0.671 ± 0.022

PVPLPSSSPSPY
protein stability index: 0.663 ± 0.046

PVPLTPRCPSVT
protein stability index: 0.6 ± 0.019

PVPLVLSFLCDL
protein stability index: 0.686 ± 0.03

PVPPAPASPPTG
protein stability index: 0.742 ± 0.06

PVPPLPPRPPPL
protein stability index: 0.619 ± 0.11

PVPPLRRFPPLF
protein stability index: 0.648 ± 0.036

PVPPSARHSSPP
protein stability index: 0.66 ± 0.021

PVPVFLLLFFSP
protein stability index: 0.496 ± 0.052

PVSPLPGPPPPP
protein stability index: 0.7681 ± 0.0053

PVSPPLSLASPS
protein stability index: 0.706 ± 0.047

PVSRSVHIEDKR
protein stability index: 0.727 ± 0.052

PVVLGVGMEGIS
protein stability index: 0.7137 ± 0.0068

PVWVDRGVLWSV
protein stability index: 0.716 ± 0.094

PWFGSSPRLAAC
protein stability index: 0.7346 ± 0.0073

PWGGMNWGGLSV
protein stability index: 0.745 ± 0.073

PWKDPSLLLHRS
protein stability index: 0.743 ± 0.061

PWPFKQHEHRRA
protein stability index: 0.847 ± 0.015

PYIKDRYSPANN
protein stability index: 0.781 ± 0.062

PYLLPPFLPSPP
protein stability index: 0.732 ± 0.029

PYSPPYSLTSLS
protein stability index: 0.708 ± 0.075

PYVAFMLPSPWQ
protein stability index: 0.672 ± 0.033

QAHRHASPKTRT
protein stability index: 0.654 ± 0.032

QAVQTLTAETKH
protein stability index: 0.63 ± 0.051

QAVVGRVRLRGE
protein stability index: 0.6775 ± 0.0017

QCFRYSVFVGRG
protein stability index: 0.63 ± 0.019

QCIRLFCPLVSL
protein stability index: 0.587 ± 0.014

QDTRRRAPYPPS
protein stability index: 0.673 ± 0.051

QEPDARYGPGRT
protein stability index: 0.692 ± 0.12

QESGPEAGIPPL
protein stability index: 0.7222 ± 0.003

QFTSGCPAYLLK
protein stability index: 0.678 ± 0.0079

QGEARRPPSPGR
protein stability index: 0.638 ± 0.19

QGGCAATRARGS
protein stability index: 0.631 ± 0.0033

QGLSHVVTCLFG
protein stability index: 0.721 ± 0.07

QGRLRLSLLVSG
protein stability index: 0.526 ± 0.0048

QGRYPLNVLIRI
protein stability index: 0.57 ± 0.057

QGTHRGSGGVTE
protein stability index: 0.716 ± 0.023

QGVPNEPLWARP
protein stability index: 0.72 ± 0.027

QHTHNRLRAAQD
protein stability index: 0.678 ± 0.029

QIKPSLGLDKPS
protein stability index: 0.683 ± 0.061

QIQKINTKSKKN
protein stability index: 0.699 ± 0.021

QIRRPRRFFYVS
protein stability index: 0.642 ± 0.17

QIVDHCLVWLRG
protein stability index: 0.628 ± 0.0066

QKISEKNISEKN
protein stability index: 0.7063 ± 0.0013

QKKKIRKKKKTT
protein stability index: 0.685 ± 0.0074

QKKKKKIKEHSK
protein stability index: 0.626 ± 0.031

QKKRKKPGKWKS
protein stability index: 0.662 ± 0.022

QKQQRIKQTAKK
protein stability index: 0.703 ± 0.048

QKRIALNSQKNT
protein stability index: 0.688 ± 0.048

QKRKKQNKDGGT
protein stability index: 0.716 ± 0.042

QKSGELVKNVRI
protein stability index: 0.673 ± 0.035

QKVNKDTRTSEF
protein stability index: 0.709 ± 0.014

QLNGTVTRPGDF
protein stability index: 0.7 ± 0.036

QLRPLSPLPPQP
protein stability index: 0.738 ± 0.029

QLSLSTPAGRLI
protein stability index: 0.6886 ± 0.0068

QLSRHCYQPSGG
protein stability index: 0.671 ± 0.0073

QMKRPSCKGTCD
protein stability index: 0.679 ± 0.044

QNEVWDACVGRC
protein stability index: 0.702 ± 0.017

QNGNRPCCEKAW
protein stability index: 0.681 ± 0.021

QNIRTELTSPRV
protein stability index: 0.6596 ± 0.0016

QNKNPNRTEKSK
protein stability index: 0.701 ± 0.056

QNRKELVERPKR
protein stability index: 0.702 ± 0.017

QNTTESANWSIT
protein stability index: 0.696 ± 0.052

QPALGNTNKYKN
protein stability index: 0.676 ± 0.049

QPLPLPSPPPPA
protein stability index: 0.741 ± 0.058

QPPSPSLFFPRV
protein stability index: 0.704 ± 0.016

QPSDTSHPHQPS
protein stability index: 0.692 ± 0.028

QPYRQAKNQRLP
protein stability index: 0.728 ± 0.02

QQRHITHRKIRI
protein stability index: 0.6595 ± 0.0048

QRARDSLVQTRH
protein stability index: 0.681 ± 0.032

QRGGTWGALWEG
protein stability index: 0.671 ± 0.02

QRMKHQKVTSNP
protein stability index: 0.732 ± 0.06

QRRARVSDISVY
protein stability index: 0.634 ± 0.012

QSAPWPSPLSFS
protein stability index: 0.718 ± 0.019

QSNEHVRQSETS
protein stability index: 0.682 ± 0.03

QSNQEETRQDGT
protein stability index: 0.687 ± 0.0084

QSPPILVPSSDV
protein stability index: 0.686 ± 0.067

QSRERDGSIRNP
protein stability index: 0.644 ± 0.021

QTKSLLTPLLNL
protein stability index: 0.65 ± 0.018

QTPNRTPIRPPP
protein stability index: 0.716 ± 0.0093

QTSASSAALLRP
protein stability index: 0.622 ± 0.042

QTVSISGVPDGF
protein stability index: 0.6669 ± 0.001

QVAIEKTTHVQE
protein stability index: 0.637 ± 0.13

QVFVRRSSPRVL
protein stability index: 0.666 ± 0.014

QVRTWGGCWGRG
protein stability index: 0.674 ± 0.0083

QVVLCCAIDKNT
protein stability index: 0.708 ± 0.082

QWSNSRPVGLTG
protein stability index: 0.676 ± 0.017

QYKKKEKKQNRT
protein stability index: 0.624 ± 0.1

QYSDRQGGRATD
protein stability index: 0.708 ± 0.015

QYSFFLRSPEVF
protein stability index: 0.512 ± 0.038

RAALEAPGCIQV
protein stability index: 0.73316 ± 3e-05

RAIGSRIIIWGL
protein stability index: 0.564 ± 0.011

RALALVHRQRVG
protein stability index: 0.648 ± 0.096

RALPLLPLPRLS
protein stability index: 0.66 ± 0.024

RALPSPRSPLSI
protein stability index: 0.616 ± 0.041

RAPDFYPTHPLA
protein stability index: 0.701 ± 0.057

RAPRSPPPPALA
protein stability index: 0.77114 ± 0.00071

RARRYNRQSTPT
protein stability index: 0.702 ± 0.023

RASPFPAMSAQV
protein stability index: 0.684 ± 0.023

RATTNKRIRVEL
protein stability index: 0.704 ± 0.011

RCAQKSMALLSD
protein stability index: 0.68 ± 0.0097

RCAWSEVFEGCG
protein stability index: 0.71 ± 0.021

RCEGNGKRASTE
protein stability index: 0.632 ± 0.031

RCGRGVAAEWLS
protein stability index: 0.668 ± 0.06

RCLGSTCRFFTF
protein stability index: 0.7 ± 0.065

RCNKETKNKDVL
protein stability index: 0.7348 ± 0.0054

RCRCPHFLCRFS
protein stability index: 0.6165 ± 0.0049

RCRKVSTISRFK
protein stability index: 0.7053 ± 0.002

RCSFSYLPVIQV
protein stability index: 0.582 ± 0.006

RCSKFRKFFKHR
protein stability index: 0.6565 ± 0.0031

RCSNWFVGFCPF
protein stability index: 0.733 ± 0.062

RCTQCFSPFSTD
protein stability index: 0.7221 ± 0.0052

RCVFGFGGVVVV
protein stability index: 0.622 ± 0.073

RCWEWADWPRDG
protein stability index: 0.764 ± 0.029

RCYTLFLGRSRV
protein stability index: 0.68037 ± 0.00022

RDGIMTDDKRIS
protein stability index: 0.707 ± 0.035

RDILFIGINIYK
protein stability index: 0.585 ± 0.049

RDLRGGIADSAG
protein stability index: 0.684 ± 0.086

RDMCVFSGGSGV
protein stability index: 0.68 ± 0.048

RDPERYAQLTAP
protein stability index: 0.776 ± 0.0086

RDRAPLLNLACL
protein stability index: 0.689 ± 0.074

RDRTVGLLEGTA
protein stability index: 0.695 ± 0.085

RDSDSSLRHNSH
protein stability index: 0.682 ± 0.061
